B1: Anthrax toxin receptor 1 (Homo sapiens), Q9H6X2-2 (parent)
chain: MATAERRALGIGFQWLSLATLVLICAGQGGRREDGGPACYGGFDLYFILDKSGSVLHHWNEIYYFVEQLAHKFISPQLRMSFIVFSTRGTTLMKLTEDREQIRQGLEELQKVLPGGDTYMHEGFERASEQIYYENRQGYRTASVIIALTDGELHEDLFFYSEREANRSRDLGAIVYCVGVKDFNETQLARIADSKDHVFPVNDGFQALQGIIHSILKKSCIEILAAEPSTICAGESFQVVVRGNGFRHARNVDRVLCSFKINDSVTLNEKPFSVEDTYLLCPAPILKEVGMKAALQVSMNDGLSFISSSVIITTTHCSDGSILAIALLILFLLLALALLWWFWPLCCTVIIKEVPPPPAEESEENKIK

Variants of: B1
Conditions: with pag_bacan pagA

Variant | effect of a mutation on the interaction
D50A | decreasing interaction
T118A | decreasing interaction

From IntAct's records for PubMed 14507921
